According to US20130115208A1:
Numbering of substitutions follows the chain as printed. Names may count otherwise. One block for each molecule: values may come before it.

Molecular target: human-FcRn (neonatal Fc receptor) (human) (UniProt P55899)
Experiment: SPR (ProteOn XPR36), IgG amine-coupled on reaction spots, human FcRn injected in kinetic titration, pH 6.0

Kd: 0.983 µM
Molecule: hIgG2ΔA (control) (antibody)

Kd: 0.6 µM
B1: hIgG2.EEE.L368E.Ab1.Ab1/hIgG2.RRR.K409R.Ab2.Ab2 (bispecific antibody, part only; not given: Variable regions and light chains, not shown: another chain or arm of the molecule)
constant 1: ASTKGPSVFPLAPCSRSTSESTAALGCLVKDYFPEPVTVSWNSGALTSGVHTFPAVLQSSGLYSLSSVVTVPSSNFGTQTYTCNVDHKPSNTKVDKTVERKCEVECPECPAPPVAGPSVFLFPPKPKDTLMISRTPEVTCVVVDVSHEDPEVQFNWYVDGVEVHNAKTKPREEQFNSTFRVVSVLTVVHQDWLNGKEYKCKVSNKGLPSSIEKTISKTKGQPREPQVYTLPPSREEMTKNQVSLTCEVKGFYPSDIAVEWESNGQPENNYKTTPPMLDSDGSFFLYSKLTVDKSRWQQGNVFSCSVMHEALHNHYTQKSLSLSPGK
constant 2: B1 constant 1 with E103R, E105R, E108R, E247L, K288R
